From US10226417B2, “Drug delivery systems and applications” (priority 2011, dated 2019)
In brackets after ≈: the same amount, converted by molar mass. Where two headings read alike, the source gives them in different places.

What was measured:
[1] = cited from earlier work
[2] = cited from earlier work; remark: listed apart in the source
[3] = Circular dichroism analysis of released protein; format: physicochemical; details: protein released from O-LA-SG into PBS, sample at day 40
Protocol: At day 40 a sample of the PBS solution was tested be circular dichroism CD analysis to monitor for any changes in protein structure.

[4] = Isoelectric focusing (IEF) of ovalbumin during processing; format: physicochemical
Protocol: Samples of O-LA were prepared as in Example 5. Samples at each step of the process were collected and analyzed by Isoelectric focusing (IEF) which measures the isoelectric point (pI) of the protein. A shift in pI of more than 0.2 is indicative of a single deamidation reaction. All samples had pI values that indicated no deamidation had occurred. The same samples were analyzed by ELISA. The ELISA tests indicated no denaturation of the epitope had occurred.

[5] = 1-octanol/water (pH 7.4; buffer solution)

## CCCCCCCCCC(=O)O [decanoic]
[1]; pH 7.4
  log P: 3.75

## CCCCCCCCCCCC(=O)O [dodecanoic]
[2]; value is for the methyl ester of the acid named in the row
  Methyl ester solubility: 4.8 µg/mL
[2]
  Solubility in water at 20° C.: 55 µg/mL (≈ 275 µM)
[1]; [5]
  log P: 4.77

## CCCCCCCCCCCCCCCC(=O)OC [methyl palmitate]
[1]; [5]
  log P: 7.41

## CCCCCCCCCCCCCCCCCC(=O)OC [methyl stearate]
[1]; [5]
  log P: 8.43

## CCCCCCCCCCCCCC(=O)O [tetradecanoic]
[2]
  Solubility in water at 20° C.: 20 µg/mL (≈ 87.6 µM)

B1: ovalbumin: protein albumin used to model a water soluble therapeutic agent protein (protein, UniProt P01012 2-386, looked up)
Ovalbumin: GSIGAASMEFCFDVFKELKVHHANENIFYCPIAIMSALAMVYLGAKDSTRTQINKVVRFDKLPGFGDSIEAQCGTSVNVHSSLRDILNQITKPNDVYSFSLASRLYAEERYPILPEYLQCVKELYRGGLEPINFQTAADQARELINSWVESQTNGIIRNVLQPSSVDSQTAMVLVNAIVFKGLWEKAFKDEDTQAMPFRVTEQESKPVQMMYQIGLFRVASMASEKMKILELPFASGTMSMLVLLPDEVSGLEQLESIINFEKLTEWTSSNVMEERKIKVYLPRMKMEEKYNLTSVLMAMGITDVFSSSANLSGISSAESLKISQAVHAAHAEINEAGREVVGSAEAGVDAASVSEEFRADHPFLFCIKHIATNAVLFFGRCVSP
[3]
  change in protein structure by circular dichroism: no wavelength shift

B2: Albumin powder: ovalbumin powder, process sample before grinding (protein, UniProt P01012 2-386, looked up)
Ovalbumin: GSIGAASMEFCFDVFKELKVHHANENIFYCPIAIMSALAMVYLGAKDSTRTQINKVVRFDKLPGFGDSIEAQCGTSVNVHSSLRDILNQITKPNDVYSFSLASRLYAEERYPILPEYLQCVKELYRGGLEPINFQTAADQARELINSWVESQTNGIIRNVLQPSSVDSQTAMVLVNAIVFKGLWEKAFKDEDTQAMPFRVTEQESKPVQMMYQIGLFRVASMASEKMKILELPFASGTMSMLVLLPDEVSGLEQLESIINFEKLTEWTSSNVMEERKIKVYLPRMKMEEKYNLTSVLMAMGITDVFSSSANLSGISSAESLKISQAVHAAHAEINEAGREVVGSAEAGVDAASVSEEFRADHPFLFCIKHIATNAVLFFGRCVSP
modifications: powder
notes: ovalbumin powder, process sample before grinding
[4]; Sample 1
  IEF data Ovalbumin A1 %: 80.9%
  IEF data Ovalbumin A1 pI: 5.10
  IEF data Ovalbumin A2 + A3 %: 19.1%
  IEF data Ovalbumin A2 + A3 pI: 5.14
[4]; Sample 2
  IEF data Ovalbumin A1 %: 82.2%
  IEF data Ovalbumin A1 pI: 5.09
  IEF data Ovalbumin A2 + A3 %: 17.8%
  IEF data Ovalbumin A2 + A3 pI: 5.14

B3: Ground Albumin powder: ovalbumin ground to a fine powder, process sample (protein, UniProt P01012 2-386, looked up)
Ovalbumin: GSIGAASMEFCFDVFKELKVHHANENIFYCPIAIMSALAMVYLGAKDSTRTQINKVVRFDKLPGFGDSIEAQCGTSVNVHSSLRDILNQITKPNDVYSFSLASRLYAEERYPILPEYLQCVKELYRGGLEPINFQTAADQARELINSWVESQTNGIIRNVLQPSSVDSQTAMVLVNAIVFKGLWEKAFKDEDTQAMPFRVTEQESKPVQMMYQIGLFRVASMASEKMKILELPFASGTMSMLVLLPDEVSGLEQLESIINFEKLTEWTSSNVMEERKIKVYLPRMKMEEKYNLTSVLMAMGITDVFSSSANLSGISSAESLKISQAVHAAHAEINEAGREVVGSAEAGVDAASVSEEFRADHPFLFCIKHIATNAVLFFGRCVSP
modifications: ground powder
notes: ovalbumin ground to a fine powder, process sample
[4]; Sample 1
  IEF data Ovalbumin A1 %: 81.7%
  IEF data Ovalbumin A1 pI: 5.10
  IEF data Ovalbumin A2 + A3 %: 18.3%
  IEF data Ovalbumin A2 + A3 pI: 5.15
[4]; Sample 2
  IEF data Ovalbumin A1 %: 81.2%
  IEF data Ovalbumin A1 pI: 5.11
  IEF data Ovalbumin A2 + A3 %: 18.8%
  IEF data Ovalbumin A2 + A3 pI: 5.15
